This note sets out measurements from PMC9561763, “Semi-rational engineering membrane binding domain of L-amino acid deaminase from Proteus vulgaris for enhanced α-ketoisocaproate” (Frontiers in Microbiology, 2022).

The Km is the substrate concentration at which the rate is half of its maximum. In general, kcat refers to the number of substrate molecules converted per active site and unit of time at saturation. For orientation: kcat/Km means the turnover number divided by the Michaelis constant.

Substrate in this data set: CC(C)C[C@H](N)C(=O)O
Briefly: alpha-ketoisocaproate formation, Michaelis-Menten fit. In kind it is biochemical, Proteus vulgaris. The conditions noted are these: 20 mM phosphate pH 7.5, 37 °C, 0-175 mM L-leucine (b36 says optimal temperature and pH), Triton X-100 purified enzyme.

Text: alpha-ketoisocaproate formation, Michaelis-Menten fit on L-amino acid deaminase (L-AAD) from Proteus vulgaris

B1: L-amino acid deaminase (L-AAD) from Proteus vulgaris (Proteus vulgaris) (protein)
chain: MAISRRKFIIGGTVVAVAAGAGILTPMLTREGRFVPGTPRHGFVEGTEGALPKQADVVVVGAGILGIMTAINLVERGLSVVIVEKGNIAGEQSSRFYGQAISYKMPDETFLLHHLGKHRWREMNAKVGIDTTYRTQGRVEVPLDEEDLVNVRKWIDERSKNVGSDIPFKTRIIEGAELNQRLRGATTDWKIAGFEEDSGSFDPEVATFVMAEYAKKMGVRIYTQCAARGLETQAGVISDVVTEKGAIKTSQVVVAGGVWSRLFMQNLNVDVPTLPAYQSQQLISGSPTAPGGNVALPGGIFFREQADGTYATSPRVIVAPVVKESFTYGYKYLPLLALPDFPVHISLNEQLINSFMQSTHWNLDEVSPFEQFRNMTALPDLPELNASLEKLKAEFPAFKESKLIDQWSGAMAIAPDENPIISEVKEYPGLVINTATGWGMTESPVSAELTADLLLGKKPVLDPKPFSLYRF
For the protein B1, the Km is 17.71 mM, the kcat stood at 1.41 s⁻¹ and the specificity constant (kcat/Km) was found to be 79.5 M⁻¹ s⁻¹.
